Results: the Human Domainome abundance scans (Beltran et al. 2025)

B1: POU domain, class 6, transcription factor 2, residues 609 to 663; numbered along this chain, P78424 (parent)
chain: KRRTSFTPQALEILNAHFEKNTHPSGQEMTEIAEKLNYDREVVRVWFCNKRQALK

Variants of: B1
Test: abundance fitness (aPCA) (normalised: wild type 0, dead -1); higher = more abundant; growth selection in yeast, the domain comes from the species named
Conditions: Homo sapiens

Abundance fitness, by site and new letter:
E34: S -0.047 | C 0.127 | V -0.194 | T -0.012 | N -0.531 | M -0.285 | D -0.428 | R -0.237 | Q -0.194 | L -0.024 | G -0.347
T30: P -0.692 | M 0.102 | W -0.393 | Q -0.119 | N -0.177 | E -0.259 | S -0.232 | A -0.046 | I -0.088 | Y -0.25 | R -0.119 | L -0.216 | H -0.061 | K -0.176 | G -0.128
L36: A -0.094 | M -0.175 | S -0.6 | W -0.642 | V -0.003 | G -0.823 | R -0.967 | C -0.073
Q27: F -0.737 | T 0.022 | M -0.39 | E 0.05 | V -0.091 | W -0.142 | S -0.071 | P -0.005 | H 0.243 | A -0.063 | L 0.064 | I 0.091 | D 0.25 | Y -0.315 | G -0.063 | N -0.106 | R 0.012 | K 0.131
K35: T 0.071 | C -0.186 | H -0.221 | L -0.01 | P -0.883 | Q -0.095 | D -0.139 | I -0.167 | Y -0.088 | R -0.053 | E -0.154 | F -0.194 | M -0.062 | S -0.047 | V -0.112 | N -0.255 | G -0.087
S25: V -0.207 | Y -0.872 | T 0.003 | W -0.92 | R -0.125
E28: V -0.094 | Y -0.113 | M -0.595 | A -0.157 | I -0.02 | T -0.088 | S -0.321 | C -0.324 | K -0.072 | P -0.998 | Q -0.171 | R -0.175 | G -0.592 | W -0.692 | F -0.17 | D -0.047 | N -0.313
E31: D -0.077 | G -0.041 | W -0.131 | R -0.028 | K -0.31 | Y -0.499 | L -0.288 | P -0.516 | T -0.112 | I -0.534 | A -0.114 | M 0.061 | N -0.258 | V -0.174 | C -0.424
A33: M -0.477 | V -0.259 | D -0.669 | H -0.881 | S -0.118 | C -0.199 | Q -0.412 | R -0.809 | W -1.01 | G -0.248
I32: Y 0.031 | S -1.07 | W -0.742 | D -1.16 | R -0.958 | L -0.154 | A -0.679 | G -0.705 | V -0.27 | M -0.246 | F -0.649 | N -0.838
G26: N -0.041 | V 0.073 | Q -0.415 | E 0.119 | L -0.054 | I -0.02 | A 0.035 | K -0.114 | M -0.078 | S -0.08 | C -0.027 | R -0.032 | P -0.004 | T 0.03 | W 0.119 | F -0.173
N37: K -0.036 | G 0.081 | R -0.063 | W -0.444 | T -0.263 | D -0.042 | F -0.353 | S -0.046 | L -0.241 | I -0.326 | Y 0.127 | P -0.229 | C -0.252 | Q -0.06 | A -0.035 | V -0.456 | E -0.075
Y38: A 0.02 | C 0.023 | F -0.145 | G -0.2 | D -0.152 | H -0.176
